From US20260060994A1, “GLYCOSYLATED COMPOSITIONS AND METHODS OF USE” (Cy Biopharma AG, priority 2023, published 2026)

Legend:
Format in all cases: biochemical
[1] = Glycosylation of 4-OH-EPT by GLY enzymes (UDP-glucose), LC-UV/MS; settings: conditions of Examples 1 and 2 repeated for 4-OH-EPT; estimate from UV peak areas
Experimental: (§1) The assay conditions were: • 100 mM Tris-HCl, pH 7.4 • 5 mM MgCl2 • 1 mM KCl • 1.25 mM UDP-glucose • 0.5 mM 4-OH-MET • 5% (v/v) DMSO • 0.1 U/uL Fast AP phosphatase • 25% (v/v) GLY enzyme
(§2) Incubation was 24 house at 30° C. Reactions were terminated adding 3 volumes of 75% (v/v) ethanol.
(§3) LC separation was performed using an Agligen 1290 Infinity II UHPLC equipped with a Phenomenex Kinetex XB-C18 column (1.7 um, 100 angstroms, 100×2.1 mm) and 4-HO-MET was detected by absorbance at 210 nm and 268 nm with an Agilent 1260 Infinity II DAD.
(§4) 0.1% Formic acid in water (A) and 0.1% Formic acid in acetonitrile (B) were used as the mobile phases for the elution gradient, with a flow rate of 0.4 ml/min. Retention time for 4-HO-MET using this type of instrument under these condition was 2.6 min. The system was coupled to an Ultivo Triple Quadrupole MS. To verify the presence of possible glycoside products, as SIM (Selected Ion Monitoring) method was used on the MS to analyse for the m/z 381 (theoretical mass to chart ratio of 4-HO-MET-glucoside) and m/z 219 (theoretical mass to charge ratio of 4-HO-MET).
(§5) The enzymes giving the additional peak putatively corresponding to the 4-HO-MET-β-D-glucoside are listed below. […] A correct quantification of the product is not possible without a standard for the specific molecule. However, based on the assumption that the ratio area-to-concentration in the UV chromatograms will be similar to 4-HO-MET, estimates of the relative abundance for the additional peak are also given, expressed as percentage of converted 4-HO-MET. GLY enzymes hits are ranked according to their estimated conversion efficiency.
The experiments described in Examples 1 and 2 above were repeated for 4-OH-EPT.
Below is the corresponding data for 4-OH-EPT.

[2] = Glycosylation of 4-HO-MET by GLY enzymes (UDP-glucose), LC-UV/MS; settings: 0.5 mM 4-OH-MET, 1.25 mM UDP-glucose, 25% (v/v) GLY enzyme, 24 h at 30° C.; estimate from UV peak areas
Experimental: 4-HO-MET was dissolved in 100% (v/v) DMSO to a concentration of 10 mM. The solution was stored at −20° C. prior to use.
FastAP phosphatase (1 U/uL) from ThermoFisher Scientific (catalog no. EF0651).
GLY enzyme suspensions contain 10 mM Tris-HCl at pH7.4, 250 mM imidazole and 50% (v/v) glycerol.
as §1, §2, §3, §4
As standard, 4-HO-MET solutions at a concentrations of 500, 250, 125, 62.5, and 31.25 uM were prepared from the 10 mM stock and used for caliboration.
A representative example of the chromatograms obtained with a wavelength of 268 nm for the standard solutions resuspended in the reaction buffer, and the corresponding MS-SIM signal, is shown in FIG. 16. The peak corresponding to 4-HO-MET is indicated.
When analyzing the GLY reactions, 30 of them gave an additional peak with retention time 2.2 min (i.e. in the expected region for a 4-HO-MET glucoside) and molecular mass compatible with the expected glucoside product, together with a corresponding decrease in substrate concentration, compared to the no-enzyme controls.
The method was repeated using various GLY enzymes to produce 4-HO-MET glucosides.
as §5

[3] = Glycosylation of 4-OH-MiPT by GLY enzymes (UDP-glucose), LC-UV/MS; settings: conditions of Examples 1 and 2 repeated for 4-OH-MiPT; estimate from UV peak areas
Experimental: as §1, §2, §3, §4, §5
(§6) The experiments described in Examples 1 and 2 above were repeated for 4-OH-MiPT, 4-HO-DMT and 5-HO-DMT
Below is the corresponding data for 4-OH-MiPT.

[4] = Glycosylation of 4-OH-DMT by GLY enzymes (UDP-glucose), LC-UV/MS; settings: conditions of Examples 1 and 2 repeated for 4-HO-DMT; estimate from UV peak areas
Experimental: as §1, §2, §3, §4, §5, §6
Below is the corresponding data for 4-OH-DMT and 5-HO-DMT.

Row | Molecule | 4-OH-EPT GLY % (percentage of converted 4-OH-EPT) [1] [%] | 4-OH-MET GLY % (percentage of converted 4-HO-MET) [2] [%] | 4-OH-MiPT GLY % (percentage of converted 4-OH-MiPT) [3] [%] | 4-OH-DMT GLY % [4] [%]
1 | GLY169: glycosyltransferase (UGT), SEQ ID NO: 26 (protein) MKKPELIFIPAPGVGHVISALEFAARLLGHDPRISITVLAIKAPFSSHLDAYTKSLVASQPRIALIDLPPVDPPPPELLRSVEHYVTVYIESYIPHVQRAVGEIQSSRSDSGSDRSVAGFVLDFFCTSMIDVADGFSLPSYIYLTSNAHFLDLMFHLPARHDQIGREARLSDPDLPLPNFANPVPVSVLPSAVLDGEAGGYAAYVKLARRFRDVRGIMVNTFMELERSALGSFSGGSWDGPAVYAVGPVIDPKGVPDPSLDRAHWEKIREWLDEQPPSSVVFLCFGSLGSFDADQVKEIASGIERSGHKFLWSLRPESSQSQLPVGFLERMRGRGIICGWTPQVEVLGHAAIGGFVSHCGWNSILESLWYGVPIVTWPIYAEQQLNAFTMVKELGLAVELRLDYKGQGIGGHLVPAEEIEKAVGRLMGDDAAETRKKVREMREAARNAVKEGGSSYDSIGRLIQDFINSIE | 33 | 52.3 | 71.5 | 25.0
2 | GLY146: glycosyltransferase (UGT), SEQ ID NO: 18 (protein) MKKSELVFIPAPGIGHLVSALEFAKRLIDHDDRHSITVLSMKFPFTPFADEFTKSLVASHHGIQVIDLPPVDPPPPELLNSPENFVCAFIESLIPHVRNTLTDMLSSSSRVSGLVLDFFCLSLIDVGNELGVPSYMFLTSNSGFLGLMLHIPIRHNQKSAEFEESDAEVSLPGFWNPVPVSVLPGAVFDKDGGYSAYLKLAKRFRDTKGIIVNTFSELELDSVKSLSDGETPPVYMVGPVIDLKGQPNPSLDQAQREKIMHWLDDQPESSVVYLCFGSMGTFGAIQLREIATGLERSGHRFLWSMRVPQPAKGPDDILPEGFSERIGGRGLICGWAPQMEVLAHKAIKGFVSHCGWNSILESLWFGVPIATWPIYAEQQMNAFRMVKEFGLAVEMKLDYRLGDLVMADEIEIAVRRLMDDSDELRKKVKEMGEMARQAIIEGGSSYIAVGQLIEDILGSISCDN | 5.3 | – | 23.2 | –
3 | GLY77: glycosyltransferase (UGT), SEQ ID NO: 8 (protein) MSTSELVFIPSPGAGHLPPTVELAKLLLHRDQRLSVTIIVMNLWLGPKHNTEARPCVPSLRFVDIPCDESTMALISPNTFISAFVEHHKPRVRDIVRGIIESDSVRLAGFVLDMFCMPMSDVANEFGVPSYNYFTSGAATLGLMFHLQWKRDHEGYDATELKNSDTELSVPSYVNPVPAKVLPEVVLDKEGGSKMFLDLAERIRESKGIIVNSCQAIERHALEYLSSNNNGIPPVFPVGPILNLENKKDDAKTDEIMRWLNEQPESSVVFLCFGSMGSFNEKQVKEIAVAIERSGHRFLWSLRRPTPKEKIEFPKEYENLEEVLPEGFLKRTSSIGKVIGWAPQMAVLSHPSVGGFVSHCGWNSTLESMWCGVPMAAWPLYAEQTLNAFLLVVELGLAAEIRMDYRTDTKAGYDGGMEVTVEEIEDGIRKLMSDGEIRNKVKDVKEKSRAAVVEGGSSYASIGKFIEHVSNVTI | 66.2 | 66.5 | 85 | 30.2
4 | GLY119: glycosyltransferase (UGT), SEQ ID NO: 16 (protein) MGSLGHQLHIFFLPFFAHGHMIPSVDMAKLFASRGIKTTIITTPLNAPFFSKTIQKTKELGFDINILTIKFPAAEAGLPEGYENTDAFIFSENAREMTIKFIKATTFLQAPFEKVLQECHPDCIVADVFFPWATDAAAKFGIPRLVFHGTSNFALSASECVRLYEPHKKVSSDSEPFVVPDLPGDIKLTKKQLPDDVRENVENDFSKFLKASKEAELRSFGVVVNSFYELEPAYADYYKKVLGRRAWNVGPVSLCNRDTEDKAGRGKETSIDHHECLKWLDSKKPNSVVYICFGSTTNFSDSQLKEIAAGLEASGQQFIWVVRRNKKGQEDKEDWLPEGFEERMEGVGLIIRGWAPQVLILDHEAIGAFVTHCGWNSTLEGITAGKPMVTWPIFAEQFYNEKLVTDVLKTGVGVGVKEWFRVHGDHVKSEAVEKTITQIMVGEEAEEMRSRAKKLGETARKAVEEGGSSYSDFNALIEELRWRRP | – | 6 | – | –
5 | GLY73: glycosyltransferase (UGT), SEQ ID NO: 4 (protein) MEDAIVLYPSPGRGHLISMVELGKLILKNHPSFSITILILSEPNTNANSTAPNYVASSTTEYITTVNSTTPSITFHHLPPISEVPPSTSSFVELSYLIPRFNNQNLHQILKTISQTSKLKAFIIDFFCDAAFEVATNLDIPTYYFFTSGACYLAALLYRPTLHKKVDKSLKDLGNTLLDIPGLPPIQASDLPEPWKDRTSKEYQYSLNVAAHMAKSNGLLVNTFDLLETKAIKAISGGLCVPDRTTPPIFCIGPLISDSNQDVEDHECLNWLNSQPSRSVVFLCFGSLGLFSAKQLKEIAVGLENSGQRFLWVLRNPPSDNDKDPNLDELLPKGFLERTKEKGFVVKQWAPQVAVLRHDSVGGFVTHCGWNSVLEAVWCRVPMVGWPLYAEQRLNSVVLVEEIKLASGLNESEDGLVSAAELEKRVKELMDSEVGTEVRERVSGLRDEAVTAVKEGGSSHVALAKLAELWRQN | – | 7.4 | – | 14.0
6 | GLY108: glycosyltransferase (UGT), SEQ ID NO: 14 (protein) MGSQQEHIVMLPFMAQGHIIPFLALAKQIQQRTGFTITIANTPLNIQYLRTTISTSDDSSRPCIRLAELPFCSSDHGLPPNTENTEALSFHQIVDLFHASKTLQAPFHSLVSGIIEKEGRPPLCIISDVFFGWATEVAKSLGTSNVTFTTGGGYGTAAYISLWQNLPHRATDSDYFALPGFPDSCRFHITQLHQYLRAADGTDAWSRYFQPQIALSLDSSGWLCNTAEEIEPHGLEILRNYVKPPVWTIGPLLPPALLNHSLSSGSSIFGQRAWKVSGVSPEKCLDWLDKHPQSSVLYISFGSQNTISPSQMMELALGLEDSGKPFIWVIRPPVGFDIEGEFRAEWLPQNFEQRMAESNQGLIVHKWAPQLEILSHKSTGVFLSHCGWNSVMESLCVGVPIIGWPLAAEQCYNSKMLTEDMGVAVELTRGRQGALERKEVKRVIELVMDSKGKGEEMKKKATEIGEKIRDAMREGGSSLKAMDDFVSTMLSKRQGY | – | 8.7 | – | –
7 | GLY164: glycosyltransferase (UGT), SEQ ID NO: 24 (protein) MKEKAELVFIPSPSVGHLVSVIVFAKRLLLLDRDNAAGSNNSFSITVLVMQEHTATASDNDAHIKSLAGAGATADVSIRFIGVPKMNPPPLDYFKSPEKFITEYVDSHKDCIKEAIIEHVLNNNVKIAGLVLDFFCSSMIDTANELGVPSYVFFTSGAAFLGFVLHLPTRGGEEFEESEADSADIFTYANPVPYRVLPSLCFNKHGGFSAFENFGRRFKETKGIIVNTFEELESHAVEYLMKCDGVPPVYNVGPMIDLHGDIHARPRGGGTQRDEIIRWLDDQPASSVVFLCFGSMGSFGEEQIKEVASGLGKSGVRFLWSLRKTPPKDRPEMPGEYTCVEDILPRGFQERSKGRGMICGWAPQKEVLAHSAIGGFVSHCGWNSILESVWFGVPIVTWPIYAEQQINAFQMVRDLGLAVELRLDYRRGTENHVMADELARAVGCVMDGDSEVRKRVKEVSEKARLALRDGGSSYAATGRLIEDLFGSVS | – | 10.2 | – | –
